Reference: the DeepSol protein solubility set

assay: soluble on expression in E. coli; label from the status in PepcDB or PDB records

**Q.** Which “soluble on expression in E. coli” value does the source give for “MGSDKIHHHHHHMHFSKEHINALETRTRAHFINSLSGFKSANLIGTQDRQGNTNLSIVSSVIHLGANPPLMGMIIRPHSVPRHTFENIMQTGLYTINHVNQSIYEQAHQTSARYDKDESEFEATGLTPEYLSDFCAPFVKESRLKYSVKLVEHQHLAINGTEFVIGEIVDVYVDDNAVQTDGFIDLQAIDTVAISGLDCYYTGDKLARLPYAKK” here?
**A.** The value was “not soluble”.

**Q.** Which “soluble on expression in E. coli” value does the source give for “MGSDKIHHHHHHMHGNADVKFGNESVFDLARGSSTNDELLNICMIRSGFKKFEEEKEIQNTDGFFIADTSVYIKLGNRLGYLTKDRLLASKSVYNELSERTKLTQMGKEIIVFYLGMYSYRHLHKSPPVSEYNKSGDIPLIEETRKIKENIPEKVTLITADRQLKQRARTLGVNVIFLNTLKSDSGNMSELLLCASNRREYMEKYDYARRDLTITINDKEVIKIESDPTKEGFSRIKTLNKEFNYAKLIEKLYEMI” here?
**A.** The value was “not soluble”.

**Q.** For “MGSDKIHHHHHHMHIKILKNRYPNIVVSKNPIKSSSDTISFFEEPYYFTIPKSNLSEEEAMLLHTLFPEPLPTFPKESTQFWFDLLFGNKELAMTNEKETYRITQFHIKTTTTKSMLQEWQKALLSFFSPEAELIMFSTNYGVIIEKSTGSLLGEEELIAVAGTLENDFYIQSTFFMGLFHPLNDRLRGLFAEERAIFNHNNREVVQTVASESLKVIALRMKESLITNELNDLFHQDDTWIPLIHTLFKNQGNISLTAKELFMHRNTIQYRLDKFYEQTNLSLRKMDGLLLAYLSTLQTNNSNHE”, which “soluble on expression in E. coli” value is on record?
**A.** Its value is “not soluble”.

**Q.** For “MGSDKIHHHHHHMHILIYSYNYHPEPIGIAPLMTELAEGLVNRGHEVRVITGMPNYPEREIYDGYRGQWYVTEQKNGVTIQRSYIRIKSKPNLLDRLLLELSFIFTSLPQAFRGERPDVMILTVPPLLGILPATIFGWLYNCPIVLNVQDILPEAAVRIGLLKNKWMIRTLAALEKFAYRTAHTISVIADGFRENLVNKGVPVNKIVCIPNWVNVNFIHPLPKQNNSWISSHQLDGKFIVLYSGNIALTQGLETVIEAAVCLRHIKEIVFVIVGESRALQRLQEYCLLHGADNVLLLPLQPREKLPEMLAAADVGLIVQKRNIISFNMPSKIPLLLASGRPIVGSVPATGTAARAIKLSGGGIIVEPESPDAMAAAVHDLYANPTFCTRLGNAGRQFAEENYSLEQALDRYEWLFYHILANRKSNVGILPKLDSKESVVDA”, which “soluble on expression in E. coli” value is on record?
**A.** Its value is “not soluble”.

**Q.** For “MGSDKIHHHHHHMHMRVLIINTSERIGGAAIAANRLMEALKNNGIKTKMLVRDKQTDQISVVELKKSWWKVWQFIWERVVIWQANHFKKHNLFAVDIANTGTNITALPEFTQADVIHLHWINQGMLSLTDIRRIIQSGKPIVWTMHDMWPFTGICHYAGDCDKYATQCHNCPQLYKGSRKDIAYRTFQKKKKLFEGAQITFVACSRWLESLAKKSDLIKGQTITNIPNAINTNLFKPRDKKQAREKCHLPQDKKLLLFGSVKITDKRKGIDYLVSACKQIASSYPDFSKELGVVVFGNQAEQYASLFPFPIYPMNYVSNEKELVDIYNAVDLYVTPSLQDNLPNTIVEAMACGIPCIGFNVGGIPQMIDHLHNGYVAEYQSSKDLANGIHWALTEGEYESLSEEACRKAVSSYSESTIAKKYVEIYNKITGNHA”, which “soluble on expression in E. coli” value is on record?
**A.** The value was “not soluble”.

**Q.** Which “soluble on expression in E. coli” value does the source give for “MGSDKIHHHHHHMHNSLVRELVQAGRRTSCLGLTNGKMGIVIALFRYARLSGELTCEDVGCELLDEIYEHLDSSIPISFGSGLWGIGWGIEYLIQNSYMEGDADEVLKDIDQCAARCIHAYGMSGLSLNNGIVGLGRYILIRIIPTFLKGDTVSSAFLKEYLIYLIDWLEERLEYTNESIDDLLDFLFDLYPTGFYRTKVSVLIEKCMNRYNL” here?
**A.** The value was “not soluble”.

**Q.** For “MGSDKIHHHHHHMHTDVNQLFAALWDDYVEMTPSAAKVHQLLAKGETIINDHIALRTFNIAKVNLSVLAKHFESLGYVACGDYDFEAKKLKAKHFEHPDPTQPKVFISELMVEAFSPELQAIVHGLVEQVDEAATTADNFLYSGRHWELDYATYEQLLAESEYAAWVAAFGYRANHFTVSINHLPGYNTILEVNETLKQGDFVLNSVGGEVKGSADVLLEQSSTMADKVNVAFKDVQKTIPSCFYEFALRYPKADGELYTGFVAASADKIFESTNNAG”, which “soluble on expression in E. coli” value is on record?
**A.** Its value is “not soluble”.

**Q.** Which “soluble on expression in E. coli” value does the source give for “MGSDKIHHHHHHMIDFLDVQKETPRIRIAIDRVGVKNIKFPLKIHDDFAFLTLNLFVDVPADRKGADMSRAVESIQKVINAGSYGERIGDIGIAICDEALSRFNYSEKAQCEVNIQYYRRSGERYLEYRMYVETAKDRKQIMKNEIGISYVTMTACPCAMETTRALISMDNPDISDAISAIPTITHNQRNVTKLTVDNRSKMITVWDLADVMERVQGKPLDSLLKRVEEGRLVYSAHRNPKFVEDVVREIAYEAARVLGVPDEATIKVSSESDESIHPHNAYAEIDTTAGELRKLHLH” here?
**A.** Its value is “not soluble”.

**Q.** For “MGSDKIHHHHHHMIDLHCHTTASDGVVTPSNVIRQASRKGIAVLAIADHDTVNGLDEAAGAAEKEGICLIPAIELSVAFPKGDFHLLGYGIQYKNENFRNKLAQLRTIREERIFRIIERLKRYGLNLTHEDLQNESQGDAPGKAHVARVLVRKRYASNFNVACKTYLNEGMPGYVPKEKLSLESACELINNAGGLSVLAHPKSLNGENHEEYERIIQMCVSHGLAGIEVYASLHDNQDVRLFLELARRHRLIATGGSDFHGDNGACLGYYGHRRPVPESCSQPLLQKISQNKT”, which “soluble on expression in E. coli” value is on record?
**A.** Its value is “not soluble”.

**Q.** Which “soluble on expression in E. coli” value does the source give for “MGSDKIHHHHHHMIDLRSDTVTKPTEEMRKAMAQAEVGDDVYGEDPTINELERLAAETFGKEAALFVPSGTMGNQVSIMAHTQRGDEVILEADSHIFWYEVGAMAVLSGVMPHPVPGKNGAMDPDDVRKAIRPRNIHFPRTSLIAIENTHNRSGGRVVPLENIKEICTIAKEHGINVHIDGARIFNASIASGVPVKEYAGYADSVMFCLSKGLCAPVGSVVVGDRDFIERARKARKMLGGGMRQAGVLAAAGIIALTKMVDRLKEDHENARFLALKLKEIGYSVNPEDVKTNMVILRTDNLKVNAHGFIEALRNSGVLANAVSDTEIRLVTHKDVSRNDIEEALNIFEKLFRKFS” here?
**A.** The value was “soluble”.

**Q.** Which “soluble on expression in E. coli” value does the source give for “MGSDKIHHHHHHMIDSIRVEGFRGLKELELSSLRRINVIVGRNNSGKSTLLEALSLFLGSSDPGTFGNVLHEILIWRGWYGIQTVDDLFYNGGDSFSISSTGKTLEALNSKHSLEFKLNGEPFYKIDRESIRRLASQAVLLARFSPKENFEFLTPLTFRRFGYAESLYSYAYERKVVKDSIKVLNEAYPEVEGFSPLLKEDNWVLYVETKYGVYPYYLMGEGFKSAMIISFLSSLLRDGVLLIDSAEAFHHPKSLKVMIQTLVRGSEKNNVQVFLTTHSLELLDLMLEMGRDGFVIYMKNVEGRIEVESIEFQRASELRESIGVDLRGF” here?
**A.** The value was “not soluble”.

**Q.** Which “soluble on expression in E. coli” value does the source give for “MGSDKIHHHHHHMIEVSRFWRDPALPFVEARQVGDGRKVCYAAHSHESFSIGVITGGRSTYINSDQCVEVGAGTTVLMNPGVVHTCNPVAGEPWSYLMLFVDQPWLQAVGFTLPTQTWSRSPVLYRRLLQAFADLFDARLPDREARLAALFHELPGMLGGNASEGGEGNPRLDAAAAFIRAHRSDPLSLEDICGACGLSRSYLIRAFRQRFGLTPHGYLLDQRVQLARAQLRQGRSIAEVAQEAGFADQAHLQRAFKQHLAATPGHYRNAVASLGAPAGAVQALKDQVNRAGDQ” here?
**A.** Its value is “not soluble”.

**Q.** Which “soluble on expression in E. coli” value does the source give for “MGSDKIHHHHHHMIFASDLDQTLIYSRKSFRAHIEDNSIQLIETLDGKEISFITYKTITLLIKLQLHSYFIPVTTRTIEQFQRITLFQNEIIPEYAITSNGGNILHNGKQDVTWNKEIKKRISVECIERNDILKEFEQIAHKDWVISQKTADDLFHYCIIKRENIPYDELSSFTSWLDKQGWNHSLQGRKLYFVPKPINKWDAVQYIQEILQMDTIITAGDSLLDLCMLEKANYAFAPLHGELGATYNHLQPHIVKTDAIGIYAAEEIVSKSLQIIHSSSPTS” here?
**A.** Its value is “not soluble”.

**Q.** With “MGSDKIHHHHHHMIFVPNENNDPRVNLAIETYLLTEMPLDEPILLFYINEPSIIIGRNQNTIEEINKEYVDEHGIHVVRRLSGGGAVYHDHGNLNFSFIMPDDGNSFRDFAKVTQPIIQALHDLGVEGAELKGRNDLVINDMKFSGNAMYATNGRMFAHGTLMFDSDIDEVVNTLKVRKDKIESKGIKSVRSRVTNIKPFLSEDKQEMTTEEFRQEILLKIFGVDSIDQVKTYELTDQDWAAINKISEQYYRNWDWNYGKSPAFNLERRHRFPIGSIEMKMNVADGAIQEIKIFGDFFGLGEIKDVEDILTGVKYDKASLEEAIDQIDVKKYFGNIEKEDLLGLIY” as the sequence, how does the “soluble on expression in E. coli” value read?
**A.** Its value is “not soluble”.

**Q.** For “MGSDKIHHHHHHMIGNRNSTSLEIAMTEIDDITGFIPQPGPIALVLGATGGVGGAVARALAGRGYHVRALHRDAARMAAKQKERQPALEPVLEWVQGDAMNRDDVIYAAKDASVILHGVNPPGYRNWGTLVLPMIDNTIAAARASGACILMPGTIYNYGPDAFPLLNEESPQHPRTVKGEIRVELERRLEQAAGEGVRVILVRAGDFFGPEAGNNWFAQGLITPGKPVTQVNLPGKPGVSHSWAYLPDVAETFIRLLERVPDMPAFARFHMQGHVDTDGYAMAQAIQRVSGSDSVRFKRFAWWMVPLLSPILPVFRELLEMRYLWREPIALDNRRLVEVLGEEPRTRLDVAVATTLKSLKCLQTSAVHPDGSRSMASETAPQ”, which “soluble on expression in E. coli” value is on record?
**A.** The value was “not soluble”.

**Q.** Which “soluble on expression in E. coli” value does the source give for “MGSDKIHHHHHHMIHKLEMFIAVAREAHFGRAAESLGLTQPTLSTGIKQLEEMLGVQLIFRGSRYGGLTPEGQRALVWARQLVSDARTFRQEMRTARHGLSGIVRLAVIPTALTWAAHLSARFSAAHPNVRFSILSRTSAEILSMLENLEADAGLSYLDNEPLGRVTTEPLYRERHTVVAHRDSDIAMQDKVEWADLAGERLCLLTPNMQNRRIINEYFMAAGIAPEAQVESNSTVVLAAHVEAGDWITILPVDMARFLCGGKPHLVIREIEGTGMDHAVGLVAPYREPHTPVLNALISETRALAKAHA” here?
**A.** Its value is “not soluble”.

**Q.** For “MGSDKIHHHHHHMIILVGGEKGGSGKSCLAQNIAVFLTVECGASVIMVDCDPQRTTSDWIQARNNNGTLASINCVQLYGKIRNDLLSLEQHYDYVIVDCGGQDNLALRATMSVASHVLMPLRPKRRDLKTVSHMDDIVATCMMINPKMRASFVITQCPSLPNQANRIFEAKEVCKTYDINVLDAITYSRNIYDDSEESGLSVMETQPKGKAAEEIRSIACEMLQASSATEIRNRLAEKQMDKLRGNYGSGRSQEKLYAV”, which “soluble on expression in E. coli” value is on record?
**A.** The value was “not soluble”.

**Q.** With “MGSDKIHHHHHHMIKELKTLIAVAREGTFAAAGDRIGLTQAAVSAQMQRLEAQLGVELFDRKGRSAQLNRMGQQVLLQGQELVRLYGSLGNSATGSAPNVLVTIGAIASVQRSFLPDALALFHRQFPQCRTRVIPGLSMDLVNQVDAGEVDLAAIIRPPFSLHSDLRWTTLMREPYRLIVPADLQGEDWAELISSQPFIRYDRSSFGGRQVDRFLRQTHVSLREVCELDELDAIVKLVANGVGVALVPETATIQAWPAGVRAVNLGPHTFHRDIGLVHRARRSLTEPVNVLAQLLTAQVQDTQ” as the sequence, how does the “soluble on expression in E. coli” value read?
**A.** The value was “not soluble”.

**Q.** With “MGSDKIHHHHHHMIKHHPHAELLQAHAQGELPLSMSMAVAAHCALCQECQNQIAKLTEQAAKLAFVSSSDDPVQHNASNEIDVVDNDPWQQMLSNIMALPESTMSEPYIESSVTVSHRNIRYQIPRVFRQHIALPWQQIGKVSRMRFDIDEKNTRASLLYIEALGEIPQHTHKGFELTLLLSGEFSDSTGNYVVGDFIILDGNTQHSPTTQTGCLCYTVLDAPLYFTKGISKLLNPIGELIY” as the sequence, how does the “soluble on expression in E. coli” value read?
**A.** The value was “not soluble”.
